The record followed here is IntAct's records for PubMed 31515488.

B1: TBC1 domain family member 22B (Homo sapiens), Q9NU19 (parent)
chain: MAAENSKQFWKRSAKLPGSIQPVYGAQHPPLDPRLTKNFIKERSKVNTVPLKNKKASSFHEFARNTSDAWDIGDDEEEDFSSPSFQTLNSKVALATAAQVLENHSKLRVKPERSQSTTSDVPANYKVIKSSSDAQLSRNSSDTCLRNPLHKQQSLPLRPIIPLVARISDQNASGAPPMTVREKTRLEKFRQLLSSQNTDLDELRKCSWPGVPREVRPITWRLLSGYLPANTERRKLTLQRKREEYFGFIEQYYDSRNEEHHQDTYRQIHIDIPRTNPLIPLFQQPLVQEIFERILFIWAIRHPASGYVQGINDLVTPFFVVFLSEYVEEDVENFDVTNLSQDMLRSIEADSFWCMSKLLDGIQDNYTFAQPGIQKKVKALEELVSRIDEQVHNHFRRYEVEYLQFAFRWMNNLLMRELPLRCTIRLWDTYQSEPEGFSHFHLYVCAAFLIKWRKEILDEEDFQGLLMLLQNLPTIHWGNEEIGLLLAEAYRLKYMFADAPNHYRR
B2: Tuftelin-interacting protein 11 (Homo sapiens), Q9UBB9 (parent)
chain: MSLSHLYRDGEGRIDDDDDERENFEITDWDLQNEFNPNRQRHWQTKEEATYGVWAERDSDDERPSFGGKRARDYSAPVNFISAGLKKGAAEEAELEDSDDEEKPVKQDDFPKDFGPRKLKTGGNFKPSQKGFAGGTKSFMDFGSWERHTKGIGQKLLQKMGYVPGRGLGKNAQGIINPIEAKQRKGKGAVGAYGSERTTQSMQDFPVVDSEEEAEEEFQKELSQWRKDPSGSKKKPKYSYKTVEELKAKGRISKKLTAPQKELSQVKVIDMTGREQKVYYSYSQISHKHNVPDDGLPLQSQQLPQSGKEAKAPGFALPELEHNLQLLIDLTEQEIIQNDRQLQYERDMVVNLFHELEKMTEVLDHEERVISNLSKVLEMVEECERRMQPDCSNPLTLDECARIFETLQDKYYEEYRMSDRVDLAVAIVYPLMKEYFKEWDPLKDCTYGTEIISKWKSLLENDQLLSHGGQDLSADAFHRLIWEVWMPFVRNIVTQWQPRNCDPMVDFLDSWVHIIPVWILDNILDQLIFPKLQKEVENWNPLTDTVPIHSWIHPWLPLMQARLEPLYSPIRSKLSSALQKWHPSDSSAKLILQPWKDVFTPGSWEAFMVKNIVPKLGMCLGELVINPHQQHMDAFYWVIDWEGMISVSSLVGLLEKHFFPKWLQVLCSWLSNSPNYEEITKWYLGWKSMFSDQVLAHPSVKDKFNEALDIMNRAVSSNVGAYMQPGARENIAYLTHTERRKDFQYEAMQERREAENMAQRGIGVAASSVPMNFKDLIETKAEEHNIVFMPVIGKRHEGKQLYTFGRIVIYIDRGVVFVQGEKTWVPTSLQSLIDMAK
partner: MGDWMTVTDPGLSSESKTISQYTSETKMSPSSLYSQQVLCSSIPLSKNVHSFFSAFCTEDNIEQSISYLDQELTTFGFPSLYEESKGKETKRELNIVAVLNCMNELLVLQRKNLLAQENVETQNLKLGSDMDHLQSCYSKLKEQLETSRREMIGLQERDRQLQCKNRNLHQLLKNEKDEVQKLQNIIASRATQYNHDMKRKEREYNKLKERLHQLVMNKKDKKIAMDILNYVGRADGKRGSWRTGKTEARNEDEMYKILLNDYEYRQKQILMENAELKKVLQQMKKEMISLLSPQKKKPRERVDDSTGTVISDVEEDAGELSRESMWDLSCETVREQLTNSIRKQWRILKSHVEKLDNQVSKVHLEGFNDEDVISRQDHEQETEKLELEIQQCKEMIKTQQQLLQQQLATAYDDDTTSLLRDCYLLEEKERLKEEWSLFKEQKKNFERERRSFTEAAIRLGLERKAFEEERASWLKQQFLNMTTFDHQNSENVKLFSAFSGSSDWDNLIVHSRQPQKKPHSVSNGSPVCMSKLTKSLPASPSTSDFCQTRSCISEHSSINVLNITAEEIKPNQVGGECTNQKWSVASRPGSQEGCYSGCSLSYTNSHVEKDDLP
B3: Kinesin-like protein KIF20A (Homo sapiens), O95235 (parent)
chain: MSQGILSPPAGLLSDDDVVVSPMFESTAADLGSVVRKNLLSDCSVVSTSLEDKQQVPSEDSMEKVKVYLRVRPLLPSELERQEDQGCVRIENVETLVLQAPKDSFALKSNERGIGQATHRFTFSQIFGPEVGQASFFNLTVKEMVKDVLKGQNWLIYTYGVTNSGKTHTIQGTIKDGGILPRSLALIFNSLQGQLHPTPDLKPLLSNEVIWLDSKQIRQEEMKKLSLLNGGLQEEELSTSLKRSVYIESRIGTSTSFDSGIAGLSSISQCTSSSQLDETSHRWAQPDTAPLPVPANIRFSIWISFFEIYNELLYDLLEPPSQQRKRQTLRLCEDQNGNPYVKDLNWIHVQDAEEAWKLLKVGRKNQSFASTHLNQNSSRSHSIFSIRILHLQGEGDIVPKISELSLCDLAGSERCKDQKSGERLKEAGNINTSLHTLGRCIAALRQNQQNRSKQNLVPFRDSKLTRVFQGFFTGRGRSCMIVNVNPCASTYDETLHVAKFSAIASQLVHAPPMQLGFPSLHSFIKEHSLQVSPSLEKGAKADTGLDDDIENEADISMYGKEELLQVVEAMKTLLLKERQEKLQLEMHLRDEICNEMVEQMQQREQWCSEHLDTQKELLEEMYEEKLNILKESLTSFYQEEIQERDEKIEELEALLQEARQQSVAHQQSGSELALRRSQRLAASASTQQLQEVKAKLQQCKAELNSTTEELHKYQKMLEPPPSAKPFTIDVDKKLEEGQKNIRLLRTELQKLGESLQSAERACCHSTGAGKLRQALTTCDDILIKQDQTLAELQNNMVLVKLDLRKKAACIAEQYHTVLKLQGQVSAKKRLGTNQENQQPNQQPPGKKPFLRNLLPRTPTCQSSTDCSPYARILRSRRSPLLKSGPFGKKY
partner: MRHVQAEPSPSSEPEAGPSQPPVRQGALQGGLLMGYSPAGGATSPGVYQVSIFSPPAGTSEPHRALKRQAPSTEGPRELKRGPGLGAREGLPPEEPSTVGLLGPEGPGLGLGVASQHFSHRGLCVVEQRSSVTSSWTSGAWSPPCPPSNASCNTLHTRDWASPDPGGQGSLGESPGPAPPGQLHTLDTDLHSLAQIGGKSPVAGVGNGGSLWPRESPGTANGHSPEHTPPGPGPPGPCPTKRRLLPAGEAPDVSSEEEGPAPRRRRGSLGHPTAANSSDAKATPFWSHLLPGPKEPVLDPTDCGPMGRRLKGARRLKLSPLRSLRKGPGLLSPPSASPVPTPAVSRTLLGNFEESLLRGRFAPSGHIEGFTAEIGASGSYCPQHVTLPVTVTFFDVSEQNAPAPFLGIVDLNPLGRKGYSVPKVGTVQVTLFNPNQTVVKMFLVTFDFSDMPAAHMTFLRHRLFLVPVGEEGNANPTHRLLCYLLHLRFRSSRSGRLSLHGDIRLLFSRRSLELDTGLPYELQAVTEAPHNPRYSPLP
B4: LIM/homeobox protein Lhx4 (Homo sapiens), Q969G2 (parent)
chain: MMQSATVPAEGAVKGLPEMLGVPMQQIPQCAGCNQHILDKFILKVLDRHWHSSCLKCADCQMQLADRCFSRAGSVYCKEDFFKRFGTKCTACQQGIPPTQVVRKAQDFVYHLHCFACIICNRQLATGDEFYLMEDGRLVCKEDYETAKQNDDSEAGAKRPRTTITAKQLETLKNAYKNSPKPARHVREQLSSETGLDMRVVQVWFQNRRAKEKRLKKDAGRHRWGQFYKSVKRSRGSSKQEKESSAEDCGVSDSELSFREDQILSELGHTNRIYGNVGDVTGGQLMNGSFSMDGTGQSYQDLRDGSPYGIPQSPSSISSLPSHAPLLNGLDYTVDSNLGIIAHAGQGVSQTLRAMAGGPTSDISTGSSVGYPDFPTSPGSWLDEMDHPPF
partner: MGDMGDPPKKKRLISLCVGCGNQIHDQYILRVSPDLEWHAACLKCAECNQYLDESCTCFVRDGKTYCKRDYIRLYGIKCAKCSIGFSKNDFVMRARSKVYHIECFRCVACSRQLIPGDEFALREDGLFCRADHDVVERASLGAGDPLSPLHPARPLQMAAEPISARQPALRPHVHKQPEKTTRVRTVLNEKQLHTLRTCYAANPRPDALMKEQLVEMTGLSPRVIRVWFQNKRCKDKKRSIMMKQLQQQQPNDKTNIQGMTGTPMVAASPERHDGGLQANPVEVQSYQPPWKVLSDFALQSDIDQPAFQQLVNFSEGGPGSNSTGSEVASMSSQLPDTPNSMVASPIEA

In the first assay the parent is B1. The settings on record: with tri23_human TRIM23, P36406.
tri23_human TRIM23, P36406, sequence (P36406 whole entry): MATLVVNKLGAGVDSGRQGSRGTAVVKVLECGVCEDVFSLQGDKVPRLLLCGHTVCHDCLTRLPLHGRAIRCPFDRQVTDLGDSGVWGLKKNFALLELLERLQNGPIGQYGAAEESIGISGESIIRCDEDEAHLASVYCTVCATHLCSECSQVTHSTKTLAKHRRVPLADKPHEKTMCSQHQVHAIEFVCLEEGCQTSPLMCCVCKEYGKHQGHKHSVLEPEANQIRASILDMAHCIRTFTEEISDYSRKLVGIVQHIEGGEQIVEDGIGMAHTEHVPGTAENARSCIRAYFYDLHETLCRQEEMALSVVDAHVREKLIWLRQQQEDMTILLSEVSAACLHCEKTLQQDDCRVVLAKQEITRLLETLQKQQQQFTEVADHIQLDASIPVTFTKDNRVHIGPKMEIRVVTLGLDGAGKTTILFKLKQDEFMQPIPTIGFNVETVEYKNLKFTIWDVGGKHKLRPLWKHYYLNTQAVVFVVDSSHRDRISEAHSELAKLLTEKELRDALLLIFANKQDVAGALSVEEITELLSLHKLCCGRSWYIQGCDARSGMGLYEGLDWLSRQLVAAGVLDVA
P177A: the “effect of a mutation on the interaction” value is “with no effect”.

Variants of B1 are the subject of the next assay. The settings on record: with ikzf3_human IKZF3, Q9UKT9.
ikzf3_human IKZF3, Q9UKT9, sequence (Q9UKT9 whole entry): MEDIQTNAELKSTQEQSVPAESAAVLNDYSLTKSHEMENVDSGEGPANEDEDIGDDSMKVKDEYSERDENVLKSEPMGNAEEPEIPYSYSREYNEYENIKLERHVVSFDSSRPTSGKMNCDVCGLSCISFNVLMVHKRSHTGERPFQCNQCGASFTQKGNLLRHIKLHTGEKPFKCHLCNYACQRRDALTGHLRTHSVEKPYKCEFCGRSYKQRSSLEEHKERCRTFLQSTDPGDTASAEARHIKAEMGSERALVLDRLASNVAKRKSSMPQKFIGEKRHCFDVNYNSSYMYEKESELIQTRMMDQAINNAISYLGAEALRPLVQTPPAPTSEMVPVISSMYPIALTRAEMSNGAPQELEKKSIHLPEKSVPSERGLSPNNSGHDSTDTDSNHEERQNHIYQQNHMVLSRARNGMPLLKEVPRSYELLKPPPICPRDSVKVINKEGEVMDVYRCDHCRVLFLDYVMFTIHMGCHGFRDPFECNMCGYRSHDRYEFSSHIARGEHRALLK
Consider P177A, for which the “effect of a mutation on the interaction” value was “with no effect”.

In a further assay the parent is B2. The settings on record: with adip_human SSX2IP.
R8Q: the “effect of a mutation on the interaction” value is “with no effect”. In the case of S688L, the “effect of a mutation on the interaction” value is reported as “with no effect”.

Variants of B3 are the subject of a further assay. The note with it: with atosb_human ATOSB.
Turning to S44F, the “effect of a mutation on the interaction” value is “disrupting interaction strength”.

The next assay covers variants of B4. The settings on record: with isl1_human ISL1, P61371.
In the case of N328S, the “effect of a mutation on the interaction” value is “with no effect”.
